Data as given in paper doi:10.1101/2024.03.08.584095v1.
Substitutions are numbered along the chain they refer to. Names and notes keep the numbering of the source.

B1: AtPORB (Arabidopsis thaliana; S312E) (protein)
chain: QTAATSSPTVTKSVDGKKTLRKGNVVVTGASSGLGLATAKALAETGKWNVIMACRDFLKAERAAKSVGMPKDSYTVMHLDLASLDSVRQFVDNFRRTETPLDVLVCNAAVYFPTAKEPTYSAEGFELSVATNHLGHFLLARLLLDDLKKSDYPSKRLIIVGSITGNTNTLAGNVPPKANLGDLRGLAGGLNGLNSSAMIDGGDFDGAKAYKDSKVCNMLTMQEFHRRFHEETGVTFASLYPGCIAETGLFREHIPLFRALFPPFQKYITKGYVSETESGKRLAQVVSDPSLTKSGVYWSWNNASASFENQLSEEASDVEKARKVWEISEKLVGLA
B2: AtPORB (Arabidopsis thaliana) (protein)
chain: B1 chain with E246S
B3: AtPORC (Arabidopsis thaliana) (protein)
chain: QTVTATPPANEASPEQKKTERKGTAVITGASSGLGLATAKALADTGKWHVIMACRNFLKAEKAARSVGMSKEDYTVMHLDLASLESVKQFVENFRRTEQPLDVLVCNAAVYQPTAKEPSFTAEGFEISVGTNHLGHFLLSRLLLDDLKKSDYPSKRMIIVGSITGNTNTLAGNVPPKANLGDLRGLASGLNGQNSSMIDGGEFDGAKAYKDSKVCNMLTMQELHRRYHEETGVTFASLYPGCIATTGLFREHIPLFRLLFPPFQKYITKGYVSEEEAGKRLAQVVSDPSLGKSGVYWSWNNNSSSFENQLSKEASDAEKAKKLWEVSEKLVGLA
B4: TaPOR1 (Triticum aestivum) (protein)
chain: GVVVITGASSGLGLAAAKALAETGKWHVVMACRDFLKASKAAKAAGMADGSYTVMHLDLASLDSVRQFVDAFRRAEMPLDVLVCNAAIYRPTARTPTFTADGHEMSVGVNHLGHFLLARLLMEDLQKSDYPSRRMVIVGSITGNSNTLAGNVPPKASLGDLRGLAGGLSGASGSAMIDGDESFDGAKAYKDSKVCNMLTMQEFHRRYHEETGITFSSLYPGCIATTGLFREHIPLFRTLFPPFQKFVTKGFVSEAESGKRLAQVVAEPSLTKSGVYWSWNKDSASFENQLSQEASDPEKARKVWELSEKLVGLA
B5: SynPOR (Synechocystis sp. PCC 6803 substr. Kazusa) (protein)
chain: MEQPMKPTVIITGASSGVGLYGAKALIDKGWHVIMACRNLDKTQKVADELGFPKDSYTIIKLDLGYLDSVRRFVAQFRELGRPLKALVCNAAVYFPLLDEPLWSADDYELSVATNHLGHFLLCNLLLEDLKACPDADKRLIILGTVTANSKELGGKIPIPAPPDLGNFEGFEAGFKKPIAMINNKKFKSGKAYKDSKLCNMLTTRELHRRFHQETGIVFNSLYPGCVADTPLFRNHYSLFRTIFPWFQKNVTKGYVSQELAGERVAMVVADDKFKDSGVHWSWGNRQQAGREAFVQELSEQGSDAQKAQRMWDLSEKLVGLV
B6: AtPORA (Arabidopsis thaliana) (protein)
chain: QAIATSTPSVTKSSLDRKKTLRKGNVVVTGASSGLGLATAKALAETGKWHVIMACRDFLKAERAAQSAGMPKDSYTVMHLDLASLDSVRQFVDNFRRAEMPLDVLVCNAAVYQPTANQPTFTAEGFELSVGINHLGHFLLSRLLIDDLKNSDYPSKRLIIVGSITGNTNTLAGNVPPKANLGDLRGLAGGLNGLNSSAMIDGGDFVGAKAYKDSKVCNMLTMQEFHRRFHEDTGITFASLYPGCIATTGLFREHIPLFRTLFPPFQKYITKGYVSESEAGKRLAQVVADPSLTKSGVYWSWNKTSASFENQLSQEASDVEKARRVWEVSEKLVGLA

What follows are proteins tested on NC(=O)C1=CN([C@@H]2O[C@H](COP(=O)(O)OP(=O)(O)OC[C@H]3O[C@@H](n4cnc5c(N)ncnc54)[C@H](OP(=O)(O)O)[C@@H]3O)[C@@H](O)[C@H]2O)C=CC1 (assay: purified protein). Conditions: pH 7.1.

With B1 as the protein, how does the Km read?
Its Km is 14.4 ± 1.66 µM.

The proteins below were run on NC(=O)C1=CN([C@@H]2O[C@H](COP(=O)(O)OP(=O)(O)OC[C@H]3O[C@@H](n4cnc5c(N)ncnc54)[C@H](OP(=O)(O)O)[C@@H]3O)[C@@H](O)[C@H]2O)C=CC1 (assay: purified protein, by the assay type). Conditions: not given.

B2 was tested. Which Km did it give?
The Km was 1.27 µM.

B3 was tested. Which Km did it give?
The Km was 0.73 µM.

How did the Km turn out when B4 was run?
Its Km is 39.67 µM.

How did the Km turn out when B5 was run?
Its Km is 12.85 µM.

How did the Km turn out when B6 was run?
The Km was 2.47 µM.
